# In patent publication US20260014245A1 (MAX DELBRUECK CENTRUM F R MOLEKULARE MEDIZIN IN DER …, published 2026):
# B1: recombinant human DPP4 with an N-terminal 8xHis-tag (hDPP4-N'His) (receptor)
# chain: HHHHHHHHGGGSGGGSGGGSDSRKTYTLTDYLKNTYRLKLYSLRWISDHEYLYKQENNILVFNAEYGNSSVFLENSTFDEFGHSINDYSISPDGQFILLEYNYVKQWRHSYTASYDIYDLNKRQLITEERIPNNTQWVTWSPVGHKLAYVWNNDIYVKIEPNLPSYRITWTGKEDIIYNGITDWVYEEEVFSAYSALWWSPNGTFLAYAQFNDTEVPLIEYSFYSDESLQYPKTVRVPYPKAGAVNPTVKFFVVNTDSLSSVTNATSIQITAPASMLIGDHYLCDVTWATQERISLQWLRRIQNYSVMDICDYDESSGRWNCLVARQHIEMSTTGWVGRFRPSEPHFTLDGNSFYKIISNEEGYRHICYFQIDKKDCTFITKGTWEVIGIEALTSDYLYYISNEYKGMPGGRNLYKIQLSDYTKVTCLSCELNPERCQYYSVSFSKEAKYYQLRCSGPGLPLYTLHSSVNDKGLRVLEDNSALDKMLQNVQMPSKKLDFIILNETKFWYQMILPPHFDKSKKYPLLLDVYAGPCSQKADTVFRLNWATYLASTENIIVASFDGRGSGYQGDKIMHAINRRLGTFEVEDQIEAARQFSKMGFVDNKRIAIWGWSYGGYVTSMVLGSGSGVFKCGIAVAPVSRWEYYDSVYTERYMGLPTPEDNLDHYRNSTVMSRAENFKQVEYLLIHGTADDNVHFQQSAQISKALVDVGVDFQAMWYTDEDHGIASSTAHQHIYTHMSHFIKQCFSLP
# notes: range 38-766
# B2: circulating mouse DPP4 (from serum) (receptor)
# chain: SRRTYSLADYLKSTFRVKSYSLWWVSDFEYLYKQENNILLLNAEHGNSSIFLENSTFESFGYHSVSPDRLFVLLEYNYVKQWRHSYTASYNIYDVNKRQLITEEKIPNNTQWITWSPEGHKLAYVWKNDIYVKVEPHLPSHRITSTGEENVIYNGITDWVYEEEVFGAYSALWWSPNNTFLAYAQFNDTGVPLIEYSFYSDESLQYPKTVWIPYPKAGAVNPTVKFFIVNIDSLSSSSSAAPIQIPAPASVARGDHYLCDVVWATEERISLQWLRRIQNYSVMAICDYDKINLTWNCPSEQQHVEMSTTGWVGRFRPAEPHFTSDGSSFYKIISDKDGYKHICHFPKDKKDCTFITKGAWEVISIEALTSDYLYYISNQYKEMPGGRNLYKIQLTDHTNVKCLSCDLNPERCQYYAVSFSKEAKYYQLGCWGPGLPLYTLHRSTDHKELRVLEDNSALDRMLQDVQMPSKKLDFIVLNETRFWYQMILPPHFDKSKKYPLLLDVYAGPCSQKADASFRLNWATYLASTENIIVASFDGRGSGYQGDKIMHAINRRLGTLEVEDQIEAARQFVKMGFVDSKRVAIWGWSYGGYVTSMVLGSGSGVFKCGIAVAPVSRWEYYDSVYTERYMGLPIPEDNLDHYRNSTVMSRAEHFKQVEYLLIHGTADDNVHFQQSAQISKALVDAGVDFQAMWYTDEDHGIASSTAHQHIYSHMSHFLQQCFSLH
# B3: recombinant mouse DPP4 (mDPP4) (receptor)
# chain: SKDEAAADSRRTYSLADYLKSTFRVKSYSLWWVSDFEYLYKQENNILLLNAEHGNSSIFLENSTFESFGYHSVSPDRLFVLLEYNYVKQWRHSYTASYNIYDVNKRQLITEEKIPNNTQWITWSPEGHKLAYVWKNDIYVKVEPHLPSHRITSTGEENVIYNGITDWVYEEEVFGAYSALWWSPNNTFLAYAQFNDTGVPLIEYSFYSDESLQYPKTVWIPYPKAGAVNPTVKFFIVNIDSLSSSSSAAPIQIPAPASVARGDHYLCDVVWATEERISLQWLRRIQNYSVMAICDYDKINLTWNCPSEQQHVEMSTTGWVGRFRPAEPHFTSDGSSFYKIISDKDGYKHICHFPKDKKDCTFITKGAWEVISIEALTSDYLYYISNQYKEMPGGRNLYKIQLTDHTNVKCLSCDLNPERCQYYAVSFSKEAKYYQLGCWGPGLPLYTLHRSTDHKELRVLEDNSALDRMLQDVQMPSKKLDFIVLNETRFWYQMILPPHFDKSKKYPLLLDVYAGPCSQKADASFRLNWATYLASTENIIVASFDGRGSGYQGDKIMHAINRRLGTLEVEDQIEAARQFVKMGFVDSKRVAIWGWSYGGYVTSMVLGSGSGVFKCGIAVAPVSRWEYYDSVYTERYMGLPIPEDNLDHYRNSTVMSRAEHFKQVEYLLIHGTADDNVHFQQSAQISKALVDAGVDFQAMWYTDEDHGIASSTAHQHIYSHMSHFLQQCFSLH
# B4: D12 (antibody, V domains shown)
# VH: EVKLVESGGGLVKPGGSLKLSCAASGFTFSSYAMSWVRQTPEKRLEWVATISSGGTYTYYPDSVKGRFTISRDNAENTLYLQMSSLRSEDTAMYYCVRDGNSMDYWGQGTSVTVSS
# VL: DIQMTQTTSSLSASLGDRVTIICRASQDINNYLNWYQKPDGTVKLLIYYTSRLHSGVPSRFSGSGSGSDYSLTISNLEQEDIATYFCQQANTLPPTFGAGTKLELR
# B5: LCA60 (antibody, V domains shown)
# VH: EVQLLESGGGLVKPGGSLRLSCEASGLTFSNVWMSWVRQAPGKGLEWVGRIKRKSEGATTDYGAPVKGRFTLSRDDSKNTVYLQMNSLKIDDTAVYYCSTLTRGGDVWSSSYYFDYWGQGALVTVSS
# VL: QSALTQPASVSGSPGQSITISCTGTSSDVGTYDLVSWYQQHPGKSPKLMIYADIKRPSGVSHRFSGSKSGNTASLTISGLQSADEADYYCCLYAGSSTSVIFGGGTKVT
# What was measured:
# [1] = biological target: T1, MERS-CoV RBD (wild type, amino acids G372-L588, AviTag, Twin Strep tag, 6xHis) (MERS-CoV); assay: human DPP4
# [2] = biological target: T1, MERS-CoV RBD (wild type, amino acids …); assay: serum pull-down with RBD coated beads
# [3] = biological target: T1, MERS-CoV RBD (wild type, amino acids …); assay: ELISA, anti Twin-Strep readout OD 405 nm (the Twin-Strep-tagged RBD is detected)
# [4] = biological target: T1, MERS-CoV RBD (wild type, amino acids …); assay: ELISA on coated RBD, antibody titrated, anti human IgG OD 405 nm
binder,measurement,setting,value
B1,Kd,[1],7.8 nM
B2,binding result,[2],no binding
B3,binding result,[3],no binding (tested: about 30 ng/µL)
B4,EC50 (read off the curve),[4],~0.04 ng/µL
B5,EC50 (read off the curve),[4],~0.03 ng/µL
